Here are results for three molecules from publication PMC10413660, “Structural basis of purine nucleotide inhibition of human uncoupling protein 1” (Science Advances, 2023).

The labels stand for the following.
B1: human uncoupling protein 1 (UCP1) (natural protein, UniProt P25874 2-307, looked up)
chain: GGLTASDVHPTLGVQLFSAGIAACLADVITFPLDTAKVRLQVQGECPTSSVIRYKGVLGTITAVVKTEGRMKLYSGLPAGLQRQISSASLRIGLYDTVQEFLTAGKETAPSLGSKILAGLTTGGVAVFIGQPTEVVKVRLQAQSHLHGIKPRYTGTYNAYRIIATTEGLTGLWKGTTPNLMRSVIINCTELVTYDLMKEAFVKNNILADDVPCHLVSALIAGFCATAMSSPVDVVKTRFINSPPGQYKSVPNCAMKVFTNEGPTAFFKGLVPSFLRLGSWNVIMFVCFEQLKRELSKSRQTMDCAT
notes: wild-type human UCP1, UniProt P25874; the forward primer joins the His8 tag and Factor Xa site to codon 2 of UCP1, the reverse primer runs to the stop codon; also called SLC25A7; not shown: His8, N-terminal, cleaved

Holding throughout (settings): both partners purified
The target of series [1] is T1, Pro-macrobody PMb65 (nanobody CA9865 fused with maltose-binding protein via a Pro-Pro linker) (llama (Lama glama) | ).
T1 construct: nanobody CA9865; the structure with PMb65 is deposited as PDB 8G8W (only regions of PMb65 are modelled); Pro-Pro linker between nanobody and MBP; parts of it are removed from the deposited model; also called cytoplasmic Pro-macrobody; source: E. coli MC1061, purified (Ni-NTA, 3C cleavage, Strep-Tactin XT); not shown: MBP with deca-His tag, N-terminal, cleaved
In words: cryo-EM structure; purified UCP1, PMb65 and PMb71 mixed stoichiometrically, overnight at 4°C, with 2 mM GTP and 2 mM D-maltose; 20 mM MES pH 6.0, 150 mM NaCl, 0.02% decyl maltose neopentyl glycol.

The target of series [2] is T2, Pro-macrobody PMb71 (nanobody CA9871 fused with maltose-binding protein via a Pro-Pro linker) (llama (Lama glama) | ).
T2 construct: nanobody CA9871; the structure with PMb71 is deposited as PDB 8G8W; Pro-Pro linker between nanobody and MBP; also called matrix Pro-macrobody; source: E. coli MC1061, purified (Ni-NTA, 3C cleavage, Strep-Tactin XT); not shown: MBP with deca-His tag, N-terminal, cleaved
Described as above.

In series [3] the target is B1. The experiment in a line: thermostability shift assay (cysteine-reactive probe CPM); 5 μg purified human UCP1 with an equimolar amount of nanobody, with or without 1 mM GTP, 1 hour at 4°C; 25° to 90°C at 5.6°C/min.

With B1, the binding result in series [1] and in series [2] was “binds” each time.

B2: nanobody CA9865 (VHH)
VHH: QVQLVESGGGLVQAGGSLRLSCAPSGRTSSTYTMGWFRQAPGKEREFVAAISWTGTPYYADSVKGRFTISRDNAKNTVYLQMNSLKPEDTAVYYCAAARPGLFIFVSDYARTAKYDYWGQGTQVTVPP
notes: the nanobody part of PMb65, whose structure is deposited as PDB 8G8W; phage display library in the pMESy4 vector; also called nanobody 65
Consider B2, for which the “thermal stabilisation (shift of Tm)” value in series [3] is 5 °C.

B3: nanobody CA9871 (VHH)
VHH: QVQLVESGGGLVQAGDSLRLSCAASGLTLKNYAMGWFRQAPGKEHEFVAVISWSGSGTSYADSVEGRFTISRDNAKNTAFLQMSSLKPEDTAVYYCAARDGGYGSRWPDEYTYWGQGTQVTVPP
notes: the nanobody part of PMb71, whose structure is deposited as PDB 8G8W; phage display library in the pMESy4 vector; also called nanobody 71
With B3, the “thermal stabilisation (shift of Tm)” value in series [3] is 0.8 °C.
